Data published in IntAct's records for PubMed 11641419.

B1: Prolactin-releasing peptide receptor (Homo sapiens), P49683 (parent)
chain: MASSTTRGPRVSDLFSGLPPAVTTPANQSAEASAGNGSVAGADAPAVTPFQSLQLVHQLKGLIVLLYSVVVVVGLVGNCLLVLVIARVRRLHNVTNFLIGNLALSDVLMCTACVPLTLAYAFEPRGWVFGGGLCHLVFFLQPVTVYVSVFTLTTIAVDRYVVLVHPLRRRISLRLSAYAVLAIWALSAVLALPAAVHTYHVELKPHDVRLCEEFWGSQERQRQLYAWGLLLVTYLLPLLVILLSYVRVSVKLRNRVVPGCVTQSQADWDRARRRRTFCLLVVIVVVFAVCWLPLHVFNLLRDLDPHAIDPYAFGLVQLLCHWLAMSSACYNPFIYAWLHDSFREELRKLLVAWPRKIAPHGQNMTVSVVI

Variants of: B1
Settings: with grip1_human GRIP1, Q9Y3R0
grip1_human GRIP1, Q9Y3R0, sequence (Q9Y3R0 whole entry): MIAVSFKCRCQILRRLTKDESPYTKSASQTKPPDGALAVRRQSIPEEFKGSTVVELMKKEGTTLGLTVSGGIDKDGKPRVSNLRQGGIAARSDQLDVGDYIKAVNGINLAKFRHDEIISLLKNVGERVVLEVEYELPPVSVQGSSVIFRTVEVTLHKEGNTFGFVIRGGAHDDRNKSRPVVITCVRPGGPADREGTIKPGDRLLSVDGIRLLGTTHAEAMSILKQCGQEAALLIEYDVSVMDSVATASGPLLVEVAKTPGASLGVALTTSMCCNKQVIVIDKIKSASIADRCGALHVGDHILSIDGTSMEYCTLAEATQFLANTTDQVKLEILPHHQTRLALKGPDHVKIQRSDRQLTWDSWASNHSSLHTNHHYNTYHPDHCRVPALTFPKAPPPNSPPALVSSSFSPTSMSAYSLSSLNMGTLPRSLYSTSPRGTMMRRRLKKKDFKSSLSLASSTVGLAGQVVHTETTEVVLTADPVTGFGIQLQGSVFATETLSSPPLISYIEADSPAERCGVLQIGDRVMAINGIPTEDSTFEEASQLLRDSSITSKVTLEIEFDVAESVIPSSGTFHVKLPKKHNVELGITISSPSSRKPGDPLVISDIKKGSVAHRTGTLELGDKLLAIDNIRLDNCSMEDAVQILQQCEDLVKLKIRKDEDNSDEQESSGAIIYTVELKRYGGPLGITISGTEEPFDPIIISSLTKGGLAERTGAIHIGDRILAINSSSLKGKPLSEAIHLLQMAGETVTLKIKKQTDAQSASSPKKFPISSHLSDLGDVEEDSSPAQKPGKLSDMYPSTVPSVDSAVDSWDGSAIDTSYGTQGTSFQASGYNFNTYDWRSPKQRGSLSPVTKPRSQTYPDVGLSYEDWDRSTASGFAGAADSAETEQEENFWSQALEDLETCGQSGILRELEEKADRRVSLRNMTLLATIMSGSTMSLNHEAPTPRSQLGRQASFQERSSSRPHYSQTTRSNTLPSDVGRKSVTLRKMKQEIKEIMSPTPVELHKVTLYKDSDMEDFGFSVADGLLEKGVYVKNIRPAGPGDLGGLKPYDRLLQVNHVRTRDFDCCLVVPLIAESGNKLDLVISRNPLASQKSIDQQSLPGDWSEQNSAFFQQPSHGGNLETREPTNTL

effect of a mutation on the interaction	Variant
disrupting interaction	V368A
disrupting interaction	S367A
disrupting interaction	I370A
